From publication PMC9388150 (Proceedings of the National Academy of Sciences of the …, 2022)
One block for each molecule: values may come before it.

Experiments:
[1] = molecular target: CeOSM-3^G444E (C. elegans) (UniProt P46873)
[2] = molecular target: full-length TtKin5 kinesin-2 (T. thermophila) (UniProt Q7YUC7)
SEC-MALS = molecular target: the molecule itself; assay: SEC-MALS

CeOSM-3^G444E (C. elegans), sequence (P46873 whole entry G444E): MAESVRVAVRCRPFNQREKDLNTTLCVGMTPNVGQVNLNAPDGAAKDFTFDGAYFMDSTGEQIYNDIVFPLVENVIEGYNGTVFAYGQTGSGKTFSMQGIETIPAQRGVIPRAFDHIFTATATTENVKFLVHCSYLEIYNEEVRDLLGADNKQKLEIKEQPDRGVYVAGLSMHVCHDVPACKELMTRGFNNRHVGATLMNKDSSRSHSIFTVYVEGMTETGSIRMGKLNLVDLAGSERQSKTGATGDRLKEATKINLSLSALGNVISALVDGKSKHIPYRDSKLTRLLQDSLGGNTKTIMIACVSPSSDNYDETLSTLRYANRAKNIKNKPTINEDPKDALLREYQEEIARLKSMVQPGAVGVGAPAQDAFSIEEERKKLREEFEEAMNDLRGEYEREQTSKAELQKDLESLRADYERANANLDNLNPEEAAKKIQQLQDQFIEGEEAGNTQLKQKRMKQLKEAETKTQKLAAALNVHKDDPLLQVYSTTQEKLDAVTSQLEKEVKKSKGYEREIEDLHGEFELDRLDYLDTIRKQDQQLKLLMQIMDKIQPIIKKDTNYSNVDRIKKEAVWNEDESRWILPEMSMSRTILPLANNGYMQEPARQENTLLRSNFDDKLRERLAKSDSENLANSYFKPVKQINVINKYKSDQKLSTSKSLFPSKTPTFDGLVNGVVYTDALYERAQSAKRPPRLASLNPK

velocity of CeOSM-3^G444E with CeIFT70/52 in single-molecule transport assays [1]: 1.7 µm/s
Molecule: CeIFT70/52 adaptor complex (from UniProt Q8I7G4 1-656)

velocity of TtKin5 with TtIFT70 in single-molecule transport assays [2]: 1.5 µm/s
Molecule: TtIFT70 (natural protein)

velocity of TtKin5 with TtIFT70/52 in single-molecule transport assays [2]: 2 µm/s
Molecule: TtIFT70/52 adaptor complex

B1: full-length TtKin5 kinesin-2 (natural protein, T. thermophila, UniProt Q7YUC7 1-836, looked up)
chain: MSSETVKVMVRARPMNKLEISKGCANIVQVDPQTNQIILSNGKDAEAAKVFTYDYVFPPDIQQQTVYENSAFPLVESVVEGYNGTIFAYGQTGCGKTHSMLGKPNDEVEKGIIPRTFSHIINIVESANDKNFLVRCSYIEIYNEEIHDLLGKDAKARMDLKEYPDKGVFVKDLTMNVVKTVAEMEKWMNIGTENRSVGATAMNKDSSRSHSIFTLYIECSYKVEGDTEDHITAGKLNLVDLAGSERQSKTQATGDRLKEATKINLSLSALGNVISALVDGKSQHVPYRDSKLTRLLQDSLGGNTKTIMIAAISPADYNYEETLSTLRYASRAKNIKNQPKVNQDPKDALLKEYADEIKKLKEMLLKQQAGEQVNFNAVVNGNGQQQPQLAIQHSSSHVMNSSEVKKLKEKNDALNAERQQIEEEVKNKEKLFQQQMQEKLMIEQKLKEVEQKFIVGGTADQDKKKKISQMRNKLKKQMQEHEKIQEELKQKDEEFENLEIKYSSLQEELDATKKKVKKLNQKYKQAQSEIKDLEKEHEIQKEDLLDTIRYQQREVKILMSICQMLLTPDEIEIIKGQGEWQDDYQVYKLPPFYFKQKKLNFPKLPAAQAMDMIDQEKQSREIDFMRQNNNFDNRQNNNHQNGNSHSHSNSIKRIPSGTMDNFEDMNKFQFGNGPAKSNNTSRYNNGFQNGSDEFDLSKYDAGGGNSLHSIQESLKEKNNSPNIRIKKAHKVQQQPEKQRIPNVSLDPIESQRISQQKLMGLQDSHFLEPSFQGGEQRRSKNIQLQPIQARPLSNSQTVMNLNQLNKNNINMNSIDFDQIANKTPNRVKLDKIQVPR
stoichiometry N (SEC-MALS): 2
